These results are taken from patent US7176277 (BURNHAM INSTITUTE, dated 2007).

In one assay the target is T1, GFP-TR3/ΔDBD (human, UniProt P22736 1-598).
T1 construct: also called GFP-ΔDBD
Nature of the assay: Co-IP. The method, then: (§1) The cells were harvested and reporter gene activity was measured. […] Cells were suspended in lysis buffer (50 mM Tris-HCl, PH7.4; 150 mM NaCl; 20 mM EDTA; 1% NP-40; 1 mM PMSF; 50 μg/ml Leupeptin; 20 mg/ml Aprotinin; 0.1 mM Na_3VO_4; and 1 mM DTT). Cells extracts were cleared by incubation with the Protein A/G plus Agarose beads (Santa Cruz) and then incubated with appropriate antibody and 30 μl of Protein A or G plus Agarose beads overnight at 4° C. […] Immunoreactive products were detected by chemiluminescence with an enhanced chemiluminescence system (ECL) (Amersham).

A further assay addresses T2, Bcl-2 (UniProt P10415 1-239).
T2 construct: The residue numbers used for the mutants (Tyr108, Leu137, Gly145, Arg146, TM 205-239) fit human Bcl-2 alpha; also called full-length Bcl-2; ^35S-labeled Bcl-2
Kind of assay: Co-IP (result restated in Example 8). The method, then:
as §1
A Co-IP assay was performed, as described above.

B1: Bcl-2/ΔLoop (other, UniProt P10415 1-239, looked up)
chain: MAHAGRTGYDNREIVMKYIHYKLSQRGYEWDAAGPALSPVPPVVHLTLRQAGDDFSRRYRRDFAEMSSQLHLTPFTARGRFATVVEELFRDGVNWGRIVAFFEFGGVMCVESVNREMSPLVDNIALWMTEYLNRHLHTWIQDNGGWDAFVELYGPSMRPLFDFSWLSLKTLLSLALVGACITLGAYLGHK
notes: also called Bcl-2 lacking the loop region
B1: in the assay with GFP-TR3/ΔDBD, the binding result is “no binding”.

B2: TR3/ΔDBD/ΔDC1 (other, not shown: large carriers; small tags and cut ends)
chain: MPCIQAQYGTPAPSPGPRDHLASDPLTPEFIKPTMDLASPEAAPAAPTALPSFSTFMDGYTGEFDTFLYQLPGTVQPCSSASSSASSTSSSSATSPASASFKFEDFQVYGCYPGPLSGPVDEALSSSGSDYYGSPCSAPSPSTPSFQPPQLSPWDGSFGHFSPSQTYEHVAAVAGEPQPASCLSRLLGKLPELRTLCTQGLQRIFYLKLEDLVPPPPIIDKIFMDTLPF
notes: also called TR3/ΔDBD/DC1; GFP fusion
As for B2, the binding result with Bcl-2 is recorded as “no binding”.
